Laboratory results published in patent publication US20240239890A1 (Chugai, published 2024).

T1: Human RNF43 extracellular domain (amino acids 1-190) with a Flag tag on its C terminus (human, UniProt Q68DV7 24-190)
T1 construct: also called recombinant human RNF43; human RNF43 ECD
T1 sequence: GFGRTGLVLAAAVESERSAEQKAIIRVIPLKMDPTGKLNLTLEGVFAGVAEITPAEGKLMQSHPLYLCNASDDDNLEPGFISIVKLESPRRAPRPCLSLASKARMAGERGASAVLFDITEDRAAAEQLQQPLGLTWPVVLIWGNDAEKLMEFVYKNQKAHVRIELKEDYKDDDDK

T2: Human RNF43 ECD with Fc region fused on its C-terminus (human)
T2 construct: also called RNF43-Fc
T2 chain: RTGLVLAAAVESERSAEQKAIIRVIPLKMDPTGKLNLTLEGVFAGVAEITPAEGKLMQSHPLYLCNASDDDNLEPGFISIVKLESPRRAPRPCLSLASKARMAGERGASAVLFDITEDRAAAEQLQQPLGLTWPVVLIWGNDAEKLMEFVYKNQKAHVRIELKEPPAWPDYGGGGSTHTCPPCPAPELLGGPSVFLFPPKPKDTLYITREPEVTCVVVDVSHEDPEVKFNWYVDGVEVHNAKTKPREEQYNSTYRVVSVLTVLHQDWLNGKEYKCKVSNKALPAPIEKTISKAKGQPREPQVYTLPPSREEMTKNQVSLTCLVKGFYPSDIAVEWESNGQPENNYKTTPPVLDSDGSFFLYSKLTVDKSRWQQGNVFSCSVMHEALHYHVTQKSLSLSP


Key:
[1] = target: T1, Human RNF43 extracellular domain (amino …); test: SPR, Biacore T200, antibody captured by anti-human Fc, RNF43 as analyte, pH 7.4, 25 C
Procedure: The affinity of the anti-RNF43 monospecific antibodies towards human RNF43 at pH 7.4 was determined at 25 degrees C. using the Biacore T200 instrument (GE Healthcare). Anti-human Fc (GE Healthcare) was immobilized onto all flow cells of a CM4 sensor chip using an amine coupling kit (GE Healthcare). All antibodies and analytes were prepared in ACES at pH 7.4 containing 20 mM ACES, 150 mM NaCl, 0.05% Tween 20, 0.005% NaN₃. Each antibody was captured onto the sensor surface by anti-human Fc. Antibody capture levels were aimed at 312 resonance unit (RU). Recombinant human RNF43 was injected at 200 nM, 50 nM, and 12.5 nM prepared by a four-fold serial dilution, followed by dissociation. The sensor surface was regenerated each cycle with 3M MgCl2. Binding affinity was determined by processing and fitting the data to a 1:1 binding model using the Biacore T200 Evaluation software, version 2.0 (GE Healthcare).

[2] = target: T2, Human RNF43 ECD with Fc region fused on …; test: competition ELISA on coated RNF43-Fc; first antibody unlabelled at 10x its EC50, second (reference) antibody biotinylated RNN0192nn at its EC50
Procedure: (§1) EC50 concentration for the binding of each anti-RNF43 monospecific antibody to RNF43-Fc (described in Example 2) was first determined by ELISA assay, using the biotinylated antibodies. In brief, RNF43-Fc at 5 micro g/mL or 1 micro g/mL was coated on Maxisorp plate (NUNC) at 4 degrees C. overnight. The coated plate was then washed with PBS-T, followed by blocking with Blocking One solution (Nacalai Tesque) for 2 hours at room temperature. Serially diluted, biotinylated anti-RNF43 monospecific antibody was then added and incubated for 1 hour at room temperature. After washing with PBS-T, StAv-HRP (PIERCE) was added and incubated for 1 hour at room temperature. After washing with PBS-T, ABTS Peroxidase substrate (SeraCare Life Sciences) was added and signal intensity was measured using Multiskan™ GO Microplate Spectrophotometer. EC50 concentration for the binding of the anti-RNF43 monospecific antibody to RNF43-Fc was calculated using Non-linear regression 4-parameter fit. The normalized absorbance at 405 nm/570 nm measured when EC50 concentration of anti-RNF43 antibodies was applied is denoted as AO.
(§2) To evaluate binding competition between the anti-RNF43 monospecific antibodies, ELISA assay with similar setting was conducted. RNF43-Fc was first coated in Maxisorp plate overnight. […] After washing with PBS-T, ABTS Peroxidase substrate was added and signal intensity was measured using Multiskan™ GO Microplate Spectrophotometer. The normalized absorbance at 405 nm/570 nm is denoted as A.

[3] = target: T2, Human RNF43 ECD with Fc region fused on …; test: competition ELISA on coated RNF43-Fc; first antibody unlabelled at 10x its EC50, second (reference) antibody biotinylated RNN0207ii at its EC50
Procedure: as §1, §2

[4] = target: T2, Human RNF43 ECD with Fc region fused on …; test: competition ELISA on coated RNF43-Fc; first antibody unlabelled at 10x its EC50, second (reference) antibody biotinylated RNN0242nn at its EC50
Procedure: as §1, §2

[5] = target: T2, Human RNF43 ECD with Fc region fused on …; test: competition ELISA on coated RNF43-Fc; first antibody unlabelled at 10x its EC50, second (reference) antibody biotinylated RNN0193jj at its EC50
Procedure: as §1, §2

[6] = target: T2, Human RNF43 ECD with Fc region fused on …; test: competition ELISA on coated RNF43-Fc; first antibody unlabelled at 10x its EC50, second (reference) antibody biotinylated RNN0246jj at its EC50
Procedure: as §1, §2

[7] = target: T2, Human RNF43 ECD with Fc region fused on …; test: competition ELISA on coated RNF43-Fc; first antibody unlabelled at 10x its EC50, second (reference) antibody biotinylated RNN0187jj at its EC50
Procedure: as §1, §2

Row | Kd [1] [nM] | koff [1] [s⁻¹] | kon [1] [M⁻¹ s⁻¹] | binding inhibition (%) [2] [%] | binding inhibition (%) [3] [%] | binding inhibition (%) [4] [%] | binding inhibition (%) [5] [%] | binding inhibition (%) [6] [%] | binding inhibition (%) [7] [%] | Binder
1 | 48.6 | 0.00944 | 194000 |  |  |  |  |  |  | RNN0246jj (antibody, human IgG1, kappa, N297A, Rabbit variable regions recombined with BS03aHis heavy-chain constant region and hk0MC light-chain constant region; also called anti-RNF43 monospecific antibody) heavy: QSVEESGGRLVTPDETLTLTCTVSGFSLNNYHMIWVRQAPGEGLEYIGFINTGGSAYYANWAKGRFTISKTSTTVDLKITSPTTEDTATYFCASVSWRTDYSFELWGPGTLVTVSSASTKGPSVFPLAPSSRSTSESTAALGCLVKDYFPEPVTVSWNSGALTSGVHTFPAVLQSSGLYSLSSVVTVPSSSLGTKTYTCNVDHKPSNTKVDKRVEPKSCDKTHTCPPCPAPELRRGPKVFLFPPKPKDTLMISRTPEVTCVVVDVSQEDPEVQFNWYVDGVEVHNAKTKPREEQFASTYRVVSVLTVLHQDWLNGKEYKCKVSNKGLPSSIEKTISKAKGQPREPQVYTLPPSREEMTKNQVSLTCLVKGFYPSDIAVEWESNGQPENNYKTTPPYLDSDGSFFLYSKLTVDKSRWQQGNVFSCSVMHEALHNHYTQESLSLSPHHHHHHHH light: AQVLTQTPSPVSAAVGGTVTISCQASQSVYANNRLAWFQQKPGQPPKLLIYSASTLASGVPSRFKGSGSGTQFTLTISGVQCDDAATYYCAGAYTGNIYTFGGGTKVEIKRTVAAPSVFIFPPSDEQLKSGTASVVCLLNNFYPREAKVQWKVDNALQSGNSQESVTEQDSKDCTYSLSSTLTLSKADYEKHKVYACEVTHQGLSSPVTKSFNRGEC
2 | 117 | 0.0227 | 193000 |  |  |  |  |  |  | RNN0276oo (antibody, human IgG1, kappa, N297A, V domains shown, Rabbit variable regions recombined with BS03aHis heavy-chain constant region and hk0MC light-chain constant region; also called anti-RNF43 monospecific antibody) VH: QSVEESGGRLVTPGTPLTLTCTVSGFSLSSYAMNWVRQAPGKGLEWIGVIGSSGRTYYASWAKGRFTSSKTSTTVVLKITSPTTEDTATYFCARGPYDSYGDGGVTGDLWGPGTLVTVSS VL: AQVLTQTPSPVSAAVGGTVTINCQSSQSVYNNNNLAWYQQKPGQPPKLLIYRASTLASGVPSRFKGSGSGTQFTLTISGVQCEDAATYYCQGGYDCSSADCDTFGGGTKVEIKR
3 | 65.6 | 0.131 | 1.99e+06 |  |  |  |  |  |  | RNN0275kk (antibody, human IgG1, kappa, N297A, V domains shown, Rabbit variable regions recombined with BS03aHis heavy-chain constant region and hk0MC light-chain constant region; also called anti-RNF43 monospecific antibody) VH: QSVEESGGRLVTPGTPLTLTCTVSGWTINSYHMCWVRQAPGEGLEWIATITTGGVTFYANWARGRFTISKTSTTVDLKMTSLTAADTATYFCVRGPDYTYFDLWGPGTLVTVSS VL: NVVLTQTPSSVSAAVGGTVTIKCQASQSISDTLAWYQQKPGQPPKLLIYYASDLASGVPSRFSGSGSGTEFTLTINDLECADAATYYCQSYVYSNGIDNTFGGGTKVEIKR

Further lines, the binder ahead of its results:

Row | Binder | Kd [1] [nM] | koff [1] [s⁻¹] | kon [1] [M⁻¹ s⁻¹] | binding inhibition (%) [2] [%] | binding inhibition (%) [3] [%] | binding inhibition (%) [4] [%] | binding inhibition (%) [5] [%] | binding inhibition (%) [6] [%] | binding inhibition (%) [7] [%]
4 | RNN0207ii with rabbit constant region (antibody) heavy: QEQLEESGGRLVTPGGSLTLTCTASGFSLSSYVISWVRQAPGEGLEYIGYVSTGGSPYYASWAKGRFTISRTSTAVDLKMTSLTASDTATYFCARYGYLDYSGLDLWGQGTLVTVSSGQPKAPSVFPLAPCCGDTPSSTVTLGCLVKGYLPEPVTVTWNSGTLTNGVRTFPSVRQSSGLYSLSSVVSVTSSSQPVTCNVAHPATNTKVDKTVAPSTCSKPMCPPPELLGGPSVFIFPPKPKDTLMISRTPEVTCVVVDVSQDDPEVQFTWYINNEQVRTARPPLREQQFNSTIRVVSTLPIAHQDWLRGKEFKCKVHNKALPAPIEKTISKARGQPLEPKVYTMGPPREELSSRSVSLTCMINGFYPSDISVEWEKNGKAEDNYKTTPTVLDSDGSYFLYSKLSVPTSEWQRGDVFTCSVMHEALHNHYTQKSISRSPGK light: AQVLTQTPSSTSTAVGGTVTINCQSSQSVYEYNHLSWFQQKPGQPPKLLIYGASTLASGVPSRFKGSGSGTQFTLTISDLECDDAATYYCQGAYYGVVDTFGGGTKVEIKRDPVAPTVLIFPPAADQVATGTVTIVCVANKYFPDVTVTWEVDGTTQTTGIENSKTPQNSADCTYNLSSTLTLTSTQYNSHKEYTCKVTQGTTSVVQSFNRGDC |  |  |  | -3.55 | 65.9 | -0.71 | 1.05 | -1.38 | -0.38
5 | RNN0192nn with rabbit constant region (antibody) heavy: QEQLVESGGGLVQPEGSLTLTCTASGFSFSSRYYMCWVRQAPGKGLEWIGCIYTGSGSTYYASWAKGRVTISKTSSTTVTLQMTSLTAADTATYFCAREAGSFNLWGPGTLVTVSSGQPKAPSVFPLAPCCGDTPSSTVTLGCLVKGYLPEPVTVTWNSGTLTNGVRTFPSVRQSSGLYSLSSVVSVTSSSQPVTCNVAHPATNTKVDKTVAPSTCSKPMCPPPELLGGPSVFIFPPKPKDTLMISRTPEVTCVVVDVSQDDPEVQFTWYINNEQVRTARPPLREQQFNSTIRVVSTLPIAHQDWLRGKEFKCKVHNKALPAPIEKTISKARGQPLEPKVYTMGPPREELSSRSVSLTCMINGFYPSDISVEWEKNGKAEDNYKTTPTVLDSDGSYFLYSKLSVPTSEWQRGDVFTCSVMHEALHNHYTQKSISRSPGK light: DVVMTQTPASVSEPVGGTVTIKCQASQSIYSGLAWYQQKPGQPPKLLIYSASKLASGVPSRFKGSGSGTEYTLTISDLECADAATYYCQNYYYGISNGWTFGGGTKVEIKRDPVAPTVLIFPPAADQVATGTVTIVCVANKYFPDVTVTWEVDGTTQTTGIENSKTPQNSADCTYNLSSTLTLTSTQYNSHKEYTCKVTQGTTSVVQSFNRGDC |  |  |  | 88.5 | -6.42 | 45.6 | 0.25 | 21.9 | 91
6 | RNN0187jj with rabbit constant region (antibody) heavy: QSLEESGGDLVKPGASLTLTCTASGFSFNSAYYMCWVRQAPGKGLEWIGCIYTGSGSTYYASWAKGRFTISKTSSTTVTLQMTSLTVADTATYFCARSGVSTYYTLWGPGTLVTVSSGQPKAPSVFPLAPCCGDTPSSTVTLGCLVKGYLPEPVTVTWNSGTLTNGVRTFPSVRQSSGLYSLSSVVSVTSSSQPVTCNVAHPATNTKVDKTVAPSTCSKPMCPPPELLGGPSVFIFPPKPKDTLMISRTPEVTCVVVDVSQDDPEVQFTWYINNEQVRTARPPLREQQFNSTIRVVSTLPIAHQDWLRGKEFKCKVHNKALPAPIEKTISKARGQPLEPKVYTMGPPREELSSRSVSLTCMINGFYPSDISVEWEKNGKAEDNYKTTPTVLDSDGSYFLYSKLSVPTSEWQRGDVFTCSVMHEALHNHYTQKSISRSPGK light: DVVMTQTPSSVSAAVGGTVTIKCQASQSIYSGLAWYQQKPGQPPKLLIYGASTLASGVPSRFKGSGSGTEYTLTISGVQCDDAATYYCQNNYYTPSNGWAFGGGTKVEIKRDPVAPTVLIFPPAADQVATGTVTIVCVANKYFPDVTVTWEVDGTTQTTGIENSKTPQNSADCTYNLSSTLTLTSTQYNSHKEYTCKVTQGTTSVVQSFNRGDC |  |  |  | 60.6 | 1.89 | 22.3 | 2.35 | 15.1 | 30.7
